Tested on: corneal epithelium in wounded mouse eyes
Assay: In vivo healing of mouse corneal epithelium (corneal wound model, fluorescein staining)
Set-up: species or system mouse (C57BL/6)
Conditions: positive control, 100 ng/ml; 16 hours post-wounding; compared to Cmpd 3 and Cmpd 10
Experimental: The FIG. 1s a series of photomicrographs depicting the healing of a wound in the cornea of mouse eye, at time 0 and 16 hours post-wounding, upon treatment with certain compositions of the present invention. Wounds were introduced into the corneas of mice, and the mice treated immediately after wounding with vehicle (PBS), with 100 ng/ml of epidermal growth factor (EGF), or with 25 nM (about 3 mg/kg) of a (Pro-Pro-Gly)7 CMP of the invention (SEQ ID NO:1) (“Cmpd 3”), or of a (Hyp-Pro-Gly)7-SubP CMP-TC of the invention (SEQ ID NO:390) (“Cmpd 10”).
To examine the possible therapeutic effects of CMPs and CMP-TC conjugates of the invention, studies were designed to test certain CMPs and CMP-TC conjugates in an in vivo setting—the healing of the corneal epithelium in wounded mouse eyes. […] Wound size at various time points over 48 hours was examined by fluorescein staining (see Carlson et al., id.), and documented via fluorescent photomicrography, and quantified using Image J software (see Rush, J. S. et al., Investig. Ophthalmol. Visual Sci. 57 (14): 5864-5871 (2016); Rush, J. S. et al., Investig. Ophthalmol. Visual Sci. 55 (8): 4691-4699 (2014)). […]

B1: epidermal growth factor (protein, UniProt P01133 23-1207, looked up)
Pro-epidermal growth factor: PQHWSCPEGTLAGNGNSTCVGPAPFLIFSHGNSIFRIDTEGTNYEQLVVDAGVSVIMDFHYNEKRIYWVDLERQLLQRVFLNGSRQERVCNIEKNVSGMAINWINEEVIWSNQQEGIITVTDMKGNNSHILLSALKYPANVAVDPVERFIFWSSEVAGSLYRADLDGVGVKALLETSEKITAVSLDVLDKRLFWIQYNREGSNSLICSCDYDGGSVHISKHPTQHNLFAMSLFGDRIFYSTWKMKTIWIANKHTGKDMVRINLHSSFVPLGELKVVHPLAQPKAEDDTWEPEQKLCKLRKGNCSSTVCGQDLQSHLCMCAEGYALSRDRKYCEDVNECAFWNHGCTLGCKNTPGSYYCTCPVGFVLLPDGKRCHQLVSCPRNVSECSHDCVLTSEGPLCFCPEGSVLERDGKTCSGCSSPDNGGCSQLCVPLSPVSWECDCFPGYDLQLDEKSCAASGPQPFLLFANSQDIRHMHFDGTDYGTLLSQQMGMVYALDHDPVENKIYFAHTALKWIERANMDGSQRERLIEEGVDVPEGLAVDWIGRRFYWTDRGKSLIGRSDLNGKRSKIITKENISQPRGIAVHPMAKRLFWTDTGINPRIESSSLQGLGRLVIASSDLIWPSGITIDFLTDKLYWCDAKQSVIEMANLDGSKRRRLTQNDVGHPFAVAVFEDYVWFSDWAMPSVMRVNKRTGKDRVRLQGSMLKPSSLVVVHPLAKPGADPCLYQNGGCEHICKKRLGTAWCSCREGFMKASDGKTCLALDGHQLLAGGEVDLKNQVTPLDILSKTRVSEDNITESQHMLVAEIMVSDQDDCAPVGCSMYARCISEGEDATCQCLKGFAGDGKLCSDIDECEMGVPVCPPASSKCINTEGGYVCRCSEGYQGDGIHCLDIDECQLGEHSCGENASCTNTEGGYTCMCAGRLSEPGLICPDSTPPPHLREDDHHYSVRNSDSECPLSHDGYCLHDGVCMYIEALDKYACNCVVGYIGERCQYRDLKWWELRHAGHGQQQKVIVVAVCVVVLVMLLLLSLWGAHYYRTQKLLSKNPKNPYEESSRDVRSRRPADTEDGMSSCPQPWFVVIKEHQDLKNGGQPVAGEDGQAADGSMQPTSWRQEPQLCGMGTEQGCWIPVSSDKGSCPQVMERSFHMPSYGTQTLEGGVEKPHSLLSANPLWQQRALDPPHQMELTQ
modifications: Pro-epidermal growth factor
notes: positive control growth factor
  wound healing in mouse cornea and corneal stroma (reduction in diameter and intensity of fluorescein fluorescence): a lower level of healing
